Reference: paper PMC5800367

Columns and labels:
[1] = molecular target: Recombinant human C5a (Homo sapiens) (UniProt P01031); assay: kinetic exclusion assay
[2] = molecular target: Recombinant Cynomolgus C5adesArg (Macaca fascicularis); assay: SPR
[3] = molecular target: Recombinant human C5a (Homo sapiens) (UniProt P01031); assay: SPR
[4] = molecular target: Serum purified Cynomolgus C5a (Macaca fascicularis); assay: SPR
[5] = molecular target: Serum purified human C5a (Homo sapiens) (UniProt P01031); assay: SPR
[6] = molecular target: Recombinant human C5a (Homo sapiens) (UniProt P01031); assay: DELFIA biochemical competition assay
[7] = molecular target: Serum purified human C5 (Homo sapiens) (UniProt P01031); assay: DELFIA biochemical competition assay

Kd [1]: 4 pM
Kd [2]: 10 pM
koff [2]: 0.000144 s⁻¹
kon [2]: 1.51e+07 M⁻¹ s⁻¹
Kd [3]: 14 pM
koff [3]: 0.000251 s⁻¹
kon [3]: 1.74e+07 M⁻¹ s⁻¹
koff [4]: 0.000154 s⁻¹
kon [4]: 8.08e+06 M⁻¹ s⁻¹
Kd [5]: 8 pM
koff [5]: 0.000165 s⁻¹
kon [5]: 2.18e+07 M⁻¹ s⁻¹
IC50 [6]: 300 pM
IC50 [7]: 600 pM
Substance: MEDI7814 (antibody)
